Measurements from patent US20240226186A9, “OBLIGATE ANAEROBIC HUMAN INTESTINAL MICROBE FOR CANCER TREATMENT, AND USE THEREOF” (HEALTHBIOME, priority 2019, published 2024).

B1: HB03-01: protein produced by the HB03 strain, SEQ ID NO 1, overexpressed in E. coli and purified (protein)
chain: IVNSKRSELDKKISIAAKEIKSANAAEITPSRSSNEELEKELNRYAKAVGSLETAYKPFLASSALVPTTPTAFQNELKTFRDSLISSCKKKNILITDTSSWLGFQVYSTQAPSVQAASTLGFELKAINSLVNKLAECGLSKFIKVYRPQLPIETPANNPEESDEADQAPWTPMPLEIAFQGDRESVLKAMNAITGMQDYLFTVNSIRIRNERMMPPPIANPAAAKPAAAQPATGAASLTPADEATAPAAPAIQQVIKPYMGKEQVFVQVSLNLVHFNQPKAQEPSED
modifications: HB03-01
B2: HB03-03: protein produced by the HB03 strain, SEQ ID NO 2, overexpressed in E. coli and purified (protein)
chain: IPESSVPAAAVSSVKGAYPNAGPIEWDSEMHGMERIYEAEFRINGFQFDVKIAPDGKIVRIKEEIAASSLPEAVRASVLKRYPGCRIKEAEKITEGELVRYKVEVADSRDDYDVLIAPDGNILHVDR
modifications: HB03-03

How the values were obtained:
[1] = tested on: lung cancer cells (LLC); experiment: MTT assay, proliferation of lung cancer cells; assay type: cell-based; conditions: LLC, 0.1, 1.0 or 10 μg/mL for 48 hours, 2-DG 20 mM (FIG. 18B)
Procedure: (§1) Then, it was investigated whether the purified HB03-01 and HB03-03 proteins affect the proliferation or apoptosis of cancer cells. Specifically, after treating colorectal cancer cells (CT26) and lung cancer cells (LLC) with the HB03-derived protein HB03-01 at concentrations of 0 (untreated), 0.1, 1.0 or 10 μg/mL or with HB03-03 at 10 μg/mL, the proliferation of the cancer cells and the activity of the apoptosis-regulating enzyme caspase-3 were investigated.
(§2) MTT assay was conducted to investigate the change in the proliferation of the cancer cells. The cancer cells were cultured using a DMEM medium (Gibco, USA) for 24 hours on a 96-well plate at 1×10^4 cells/well in a 5% CO2 incubator at 37° C. A low-glucose condition was maintained by treating with 2-deoxyglucose (2-DG) to a final concentration of 20 mM. After culturing for 6 hours, HB03-01 was treated at a concentration of 0, 0.1, 1.0 or 10 μg/mL for 48 hours. After adding 10 μL of an MTT solution, the cells were cultured further for 2 hours. After removing the medium from the 96-well plate and dissolving a formazan formed on the plate with 100 μL of DMSO, absorbance was measured at 540 nm using an ELISA reader (Model 680, BioRad). A control group was treated with 0 μg/mL HB03-01 (untreated), and the measurement values were represented as relative cell survivability (%) with respect to the number of cells in the control group as 100%.

[2] = tested on: caspase-3; experiment: Western blot of caspase-3 activity level in lung cancer cells; assay type: cell-based; conditions: LLC lung cancer cells, 10 μg/mL for 24 hours (FIG. 18C)
Procedure: as §1
Western blot was conducted to investigate the activity level of caspase-3. Lung cancer cells treated with 10 μg/mL of HB03-01 or HB03-03 for 24 hours were homogenized in an ice-cold 20 mM Tris-HCl buffer (pH 7.5) containing 2 mM EDTA (ethylenediaminetetraacetic acid), 0.5 mM EGTA (ethylene glycol tetraacetic acid), 300 mM sucrose and 2 mM PMSF (phenylmethylsulfonyl fluoride). After electrophoresing 50 μg of proteins on 15% SDS-PAGE (sodium dodecyl sulfate-polyacrylamide gel electrophoresis) gel, they were transferred onto a PVDF (polyvinylidene fluoride) membrane using a semidry transfer system (Hoefer, Holliston, MA, USA). Non-specific binding was blocked by incubating with 5% non-fat dry milk. […] The immune complexes were detected using an ECL detection kit (Amersham Biosciences Korea, Seoul, Korea) and auto-radiographed onto an X-ray film. […]

[3] = tested on: MC38 colorectal cancer cells; experiment: Tumor growth in mice inoculated with MC38 colorectal cancer cells; assay type: in vivo, C57BL/6 JAX mice; conditions: administered 5 times until day 16 with 2-day intervals from day 5 (FIG. 19)
Description: 6- to 8-week old male C57BL/6J JAX and BALB/c mice purchased from Daehan Biolink were used. Each of the mice was housed in a cage and was maintained under a controlled environment (12-hour light/dark cycle, light-off at 7 pm) with free access to feed and water ad libitum. Tumorigenesis was induced by injecting pancreatic cancer cells (Panc02), melanoma cells (B16F10), glioma cells (GL261), sarcoma cells (MCA205) colorectal cancer cells (MC38) and lung cancer cells (LLC) to the C57BL/6 JAX mice and injecting colorectal cancer cells (CT26) to the BALB/c mice. Specifically, 1×10^7 cells/100 μL of Panc02, 2×10^5 cells/100 μL of B16F10, 5×10^5 cells/100 μL of GL261, 5×10^5 cells/100 μL of MCA205, 5×10^5 cells/100 μL of MC38, 5×10^5 cells/100 μL of LLC or 5×10^5 cells/100 μL of CT26 tumor cells were subcutaneously injected to the mice. Tumor size was measured with 2- or 3-day intervals until the end of the experiment, and tumor volume was calculated as length×width^2×0.5. In order to investigate the change in tumor size and immune environment owing to HB03 and its fragment, intestinal contents were recovered, immersed in liquid nitrogen and then kept at −80° C. All animal experimental procedures were approved by the Animal Care and Use Committee of Korea Research Institute of Bioscience and Biotechnology. […]

[4] = tested on: colorectal cancer cells (CT26); experiment: MTT assay, proliferation of colorectal cancer cells; assay type: cell-based; conditions: CT26, 0.1, 1.0 or 10 μg/mL for 48 hours, 2-DG 20 mM (FIG. 18A)
Procedure: as §1, §2

Molecule	Proliferation of lung cancer cells (relative cell survivability) [1]	Activation of apoptosis-regulating enzyme (caspase-3) [2]	Tumor growth vs control group, post-treatment with HB03-derived protein [3]	Proliferation of colorectal cancer cells (relative cell survivability) [4]
B1	significantly decreased	activated	significantly inhibit tumor growth	significantly decreased
B2		activated	significantly inhibit tumor growth	
